According to paper PMC5892879, “Structures of the Mycobacterium tuberculosis GlpX protein (class II fructose-1,6-bisphosphatase): implications for the active oligomeric state, catalytic mechanism and citrate inhibition” (Acta Crystallographica. Section D, Structural Biology, 2018):

Legend:
Assay in all cases: crystal structure
[1] = target: Mycobacterium tuberculosis class II fructose-1,6-bisphosphatase (GlpX protein), T84S variant (Mycobacterium tuberculosis) (UniProt P9WN21)
[2] = target: Mycobacterium tuberculosis class II fructose-1,6-bisphosphatase (GlpX protein), wild type (Mycobacterium tuberculosis) (UniProt P9WN21)
[3] = target: Mycobacterium tuberculosis class II fructose-1,6-bisphosphatase (GlpX protein), T84A variant (Mycobacterium tuberculosis) (UniProt P9WN21)

Mycobacterium tuberculosis class II fructose-1,6-bisphosphatase (GlpX protein), T84S variant (from UniProt P9WN21) (enzyme)
stoichiometry N [1]: 4

Mycobacterium tuberculosis class II fructose-1,6-bisphosphatase (GlpX protein), wild type (from UniProt P9WN21 35-362) (enzyme)
stoichiometry N [2]: 4

Mycobacterium tuberculosis class II fructose-1,6-bisphosphatase (GlpX protein), T84A variant (from UniProt P9WN21) (enzyme)
stoichiometry N [3]: 4
